Source: patent US20250352661A1 (MYTHIC THERAPEUTICS, published 2025)
Positions count from the first letter of the chain named. In names and notes the source's numbering stands.

T1: LRRC15 on the surface of LRRC15+ cells (SAOS-2, U87MG) (UniProt Q8TF66 22-581, limits assumed)
T1 sequence (looked up): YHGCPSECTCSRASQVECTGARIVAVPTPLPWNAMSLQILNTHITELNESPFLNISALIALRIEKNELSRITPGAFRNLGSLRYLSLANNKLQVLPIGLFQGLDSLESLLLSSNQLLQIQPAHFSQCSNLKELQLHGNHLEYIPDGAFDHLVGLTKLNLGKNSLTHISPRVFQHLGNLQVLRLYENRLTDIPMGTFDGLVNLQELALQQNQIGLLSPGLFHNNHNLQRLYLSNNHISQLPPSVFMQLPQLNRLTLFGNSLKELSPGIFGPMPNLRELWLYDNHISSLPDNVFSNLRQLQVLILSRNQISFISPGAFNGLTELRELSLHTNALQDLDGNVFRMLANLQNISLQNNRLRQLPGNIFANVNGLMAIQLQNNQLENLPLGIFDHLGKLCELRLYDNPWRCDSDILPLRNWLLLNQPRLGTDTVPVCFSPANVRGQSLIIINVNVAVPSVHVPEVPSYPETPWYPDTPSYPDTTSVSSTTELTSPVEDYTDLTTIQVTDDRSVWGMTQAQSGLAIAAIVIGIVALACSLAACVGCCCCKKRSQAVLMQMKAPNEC

T2: LRRC15 on LRRC15 positive cell lines SAOS2 and G292 (UniProt Q8TF66 22-581, limits assumed)
T2 construct: whole, on cells
T2 sequence (looked up): T1 sequence (looked up)

B1: MYT8391 (antibody, V domains shown)
VH: EVQLVESGGGLVQPGGSLRLSCTASGLDFRRTNYICWVRQAPGKGLEWVGCIYIADVVHYYASWAKGRFTFSRDTSKNTVYLQMNSLRAEDTAVYYCARGADGGFHYGMDLWGQGTLVTVSS
VL: EIVMTQSPSTLSASVGDRVIITCQASQSIGNYLSWYQQKPGKAPKRLIYSASTLPSGVPSRFSGSGSGAEFTLTISSLQPDDFATYYCQNNYWLAGYGHPFGQGTKLTVL
B2: MYT8094 (antibody, IgG1, V domains shown)
VH: EVQLVESGGGLVQPGGSLRLSCTASGFSFSSSHWICWVRQAPGKGLEWVGCIYAGSIGSTYYASWAKGRFTISRDTSKNTVYLQMNSLRAEDTAVYYCARAPNDIYNYYFNLWGQGTLVTVSS
VL: EIVMTQSPSTLSASVGDRVIITCQASENIYNYLAWYQQKPGKAPKLLIYYASTLASGVPSRFSGSGSGAEFTLTISSLQPDDFATYYCQSGYVSKSSTFGQGTKLTVL
B3: MYT9521 (antibody, V domains shown)
VH: B2 VH
VL: B2 VL with T53D
B4: MYT8500 (antibody, V domains shown)
VH: EVQLVESGGGLVQPGGSLRLSCTASGFSFSGSYWICWVRQAPGKGLEWVGCINGGSHDITYYASWAKGRFTISRDTSKNTVYLQKTSLRAEDTAVYYCASDTSYTAYGNFYFNLWGQGTLVTVSS
VL: EIVMTQSPSPLSASVGDRVIITCQSSQSVLNNNWLAWYQQKPGKAPKLLIYDASSLASGVPSRFSGSGSGAEFTLTISSLQPDDFATYYCQGEFSCGSADCNAFGQGTKLTVL
B5: MYT9731 (antibody, V domains shown)
VH: B2 VH
VL: B2 VL with N28E
B6: MYT8391-c-ADC (antibody, human IgG1, kappa, V domains shown)
VH: B1 VH
VL: EIVMTQSPSTLSASVGDRVIITCQASQSIGNYLSWYQQKPGKAPKRLIYSASTLPSGVPSRFSGSGSGAEFTLTISSLQPDDFATYYCQNNYWLAGYGHPFGQGTKLTVLR
modifications: vcMMAE conjugated to the cysteine at position 205 of the light chain
B7: MYT8415-c-ADC (antibody, human IgG1, kappa, V domains shown)
VH: B1 VH with H106V
VL: B6 VL with Y92H
modifications: vcMMAE conjugated to the cysteine at position 205 of the light chain
B8: MYT8417-c-ADC (antibody, human IgG1, kappa, V domains shown)
VH: B1 VH with H106V
VL: B6 VL with G96H
modifications: vcMMAE conjugated to the cysteine at position 205 of the light chain
B9: MYT3315-c-ADC (antibody, human IgG1, kappa, V domains shown)
VH: EVQLVESGGGLVQPGGSLRLSCAVSGFSLTSYGVHWVRQATGKGLEWLGVIWAGGSTNYNSALMSRLTISKENAKSSVYLQMNSLRAGDTAMYYCATHMITEDYYGMDYWGQGTTVTVSS
VL: DIVMTQSPDSLAVSLGERATINCKSSQSLLNSRTRKNYLAWYQQKPGQSPKLLIYWASTRHSGVPDRFSGSGSGTDFTLTISSLQAEDVAVYYCKQSYNLPTFGGGTKVEIKR
modifications: vcMMAE conjugated to the cysteine at position 205 of the light chain
B10: MYT9776-c-ADC (antibody, human IgG1, kappa, V domains shown)
VH: B4 VH with S32H, N53H
VL: EIVMTQSPSPLSASVGDRVIITCQSSQSVLNNNWLAWYQQKPGKAPKLLIYDASSLASGVPSRFSGSGSGAEFTLTISSLQPDDFATYYCQGEFSCGSADCNAFGQGTKLEIKR
modifications: vcMMAE conjugated to the cysteine at position 205 of the light chain
B11: MYT8483-c-ADC (antibody, human IgG1, kappa, V domains shown)
VH: B4 VH with H57L
VL: B10 VL with E111T, I112V, K113L
modifications: vcMMAE conjugated to the cysteine at position 205 of the light chain
B12: MYT2737-c-ADC (antibody, human IgG1, kappa, V domains shown)
VH: EVQLVQSGAEVKKPGASVKVSCKASGYKFSSYWIEWVKQAPGQGLEWIGEILPGSDTTNYNEKFKDRATFTSDTSINTAYMELSRLRSDDTAVYYCARDRGNYRAWFGYWGQGTLVTVSS
VL: DIQMTQSPSSLSASVGDRVTITCRASQDISNYLNWYQQKPGGAVKFLIYHTSRLHSGVPSRFSGSGSGTDYTLTISSLQPEDFATYFCQQGEALPWTFGGGTKVEIKR
modifications: vcMMAE conjugated to the cysteine at position 205 of the light chain
B13: MYT8417 (antibody, V domains shown)
VH: B1 VH with H106V
VL: B1 VL with G96H
notes: Humanized 15G7 variant (LC descriptor G112H); also called hu 15G7 LC his variant
B14: MYT8483 (antibody, IgG1, V domains shown)
VH: B4 VH with H57L
VL: B4 VL
notes: Humanized 24D9; also called hu24D9; Parental
B15: MYT8500 (antibody, V domains shown)
VH: B4 VH
VL: B4 VL
notes: also called hu 24D9 HC Hydrophobicity Variant; hu24D9 HC Dev

Molecular target: T1, LRRC15 on the surface of LRRC15+ cells …
Test: cell-based or functional assay

Binder	Internalization in SAOS-2 cells (10 nM, 24 hours), FOB = fold over background (IgG control)	Internalization in SAOS-2 cells (10 nM, 24 hours), FOS = fold over samrotamab
B1	2.94 fold over background (IgG control)	1.2 fold over samrotamab
B2	3.15 fold over background (IgG control)	1.32 fold over samrotamab
B3	3.02 fold over background (IgG control)	1.24 fold over samrotamab
B4	2.68 fold over background (IgG control)	1.03 fold over samrotamab

Molecular target: T1, LRRC15 on the surface of LRRC15+ cells …
Test: cell-based or functional assay
Remark: another data set of the same source

Binder	Internalization in U87MG cells (10 nM, 24 hours), FOB = fold over background (IgG control)	Internalization in U87MG cells (10 nM, 24 hours), FOS = fold over samrotamab
B1	3.13 fold over background (IgG control)	2.49 fold over samrotamab
B2	3.52 fold over background (IgG control)	2.94 fold over samrotamab
B3	3.42 fold over background (IgG control)	2.82 fold over samrotamab
B4	2.65 fold over background (IgG control)	1.93 fold over samrotamab

Molecular target: T1, LRRC15 on the surface of LRRC15+ cells …
Test: cell-based or functional assay
Remark: another data set of the same source

Binder	Cytotoxicity against SAOS-2 cells, Fold over MYT5438 (mAb complexed with MMAF-conjugated secondary antibody, CTG assay)
B1	1.14 fold over MYT5438
B2	1.45 fold over MYT5438
B5	1.05 fold over MYT5438
B3	1.49 fold over MYT5438
B4	1.06 fold over MYT5438

Molecular target: T1, LRRC15 on the surface of LRRC15+ cells …
Test: cell-based or functional assay
Remark: another data set of the same source

Binder	20 nM Efficacy (cytotoxicity of candidates against SAOS-2 cells)
B6	63.8
B7	38.7
B8	42.5
B9	22
B10	66.3
B11	29.4
B12	20.2

Molecular target: T2, LRRC15 on LRRC15 positive cell lines …
Test: cell binding on G292 cells (LRRC15 positive), pH 7.4
Parameters: unit not given here

Binder	Affinity
B13	0.76
B14	2.07
B15	2.21

Molecular target: T2, LRRC15 on LRRC15 positive cell lines …
Test: cell binding on SAOS2 cells (LRRC15 positive), pH 7.4
Parameters: unit not given here

Binder	Affinity
B13	0.554
B14	1.65
B15	1.22
